Laboratory results taken from the DeepSol protein solubility set.

test: soluble on expression in E. coli; label from the status in PepcDB or PDB records

Row | Sequence | soluble on expression in E. coli
1 | RCIKLYRARKGNAAVKRHMRDTLSLNDAVEKVRAVDAPLSKLAQEALQSYRNYRRNEASELAQALPLNEYLVIQIRNSMAQIMRRFD | not soluble
2 | MGSDKIHHHHHHMKLVKTGILPLDTQLGGGMPAGSVVSVFEEPGAGADVLSYHFTVEGATHGENVFYLATDDSSEEIREYINLYFDLDEAVWENITLLSLRASMQQEEGEKDAKDFLRKTIYDPIGGIKTILSHEEFERVVINNFTYFLANYPIEDVIALIDVLSNYAKRNQSVVMLLVTKGMFDPRTETTVKHYSDGVIELTLKEVENEVQRRLKVVKFKGILVPKAILRYELTDKGIKMESVMRVL | not soluble
3 | MGSDKIHHHHHHMSTKSLPMDQILNELRSYDRSEHILNHGFDLGTAWWKIELRKAAWTPSGPLAEPTESVRIDRRRLFGMASEIHTGDIDPVDFTLSVVLWGSGSSRRNNRARIQSIVDVEGRVALRQALELASTDAEASFAAFRTNGRNAFAYLGPAFFTKLMYFAGAGSKSHDAYIVDHRVLQTLSRTPAGAGLRAIHNYGPNTYRRACSALEVIASAARVSGCPELADCTGDLVERWAFDVAGAS | not soluble
4 | MSVVLGENELVIRGCILYEVLNKKPIQESYENFCRNVGNDVMSYNDFDFWFYRFYNGNHDLHYDRSADPASPLLSNMPLNIIDEVLNRMEILNLLVLMKVSRNFRKVVQNMKMVFDCIEVDFDEHLAITYNSRHKIKYRPNDTAQYSPFRQEPTCTCGRRIRTSDEDNRKEFFVTDEDYIELGVKDLKLIMENQNVQLKKFQFSNGSNQDTQKKFIDRAEIAFKSAKSSTRTVEAHYNSLAEIAQLLPIFHAGKLEEINFKQGARTDGYEQLVGLEQWKNARKFDGFWSLNVPIEHCLHFECFKDHFVRFKEEDAMKLRYMLDRSTNFGYAEITIDPMNVSLLKRAFDVNNDNKFEFVYQSPDNGSFEVHCALRVLYITKSGYKFKYNNKSASTFYKPPPIPAPPALFLRDYQFFDPRPRMPTDRSRYRPF | not soluble
5 | MGSDKIHHHHHHMPQEPESGADLPSDRTAVFPTPEGPPLPKQVTLQAAKWLVMLQAPNTTQATRAKWQQWRDVHPDHERAWQHIEASATQMRAMHSPLAHGTLIRDDTEKRHARRRAIKLLGVIAFTGTSTWLLRDNPVWREWHADHRTATSERRTIVLADGTRIMLNTASIIDVHFDNAIRLVTLIRGEILVTTAPDSASGTGQPFIVETDQGRLRALGTRFAVRQRENDSHVSLFEGMVEIRPADASDQARVLQAGEQISFTRNAIETPQTIDTHAASWVTGMLVVQEMPLTDFIDELARYRPGYLSCDPELSHLKVSGIYPIEDTERVLDMLLHVHPIEIYSLTRYWVAIRARGDR | not soluble
6 | MGSDKIHHHHHHMNESERKIVEEFQKETGINFKNEELLFRALCHSSYANEQNQAGRKDVESNEKLEFLGDAVLELFVCEILYKKYPEAEVGDLARVKSAAASEEVLAMVSRKMNLGKFLFLGKGEEKTGGRDRDSILADAFEALLAAIYLDQGYEKIKELFEQEFEFYIEKIMKGEMLFDYKTALQEIVQSEHKVPPEYILVRTEKNDGDRIFVVEVRVNGKTIATGKGRTKKEAEKEAARIAYEKLLKERS | soluble
7 | MREDVPRAVTTICSALQEQIEHGLLPHGSKLPAERKLSEVFDTTRITLREALLQLEAQGLIYREERRGWFISPPRLAYDLIRRSHFHAMVCAQGRVAHTQLLSARLQPASAMICEMLELPALSSVIQICRARRIDQRLVLYVEHYLRPELFPGILDHDLNESLIELYARCYDVHYGPVRFDVVPTALHADAAAALKVSLGSPGLRIARVNYDRKDRLIDCDLEYWRHDAIHVRAMVRDN | not soluble
8 | MAHHHHHHMRHCHMSFAYCFCPFSAHRSASSQGYTRLMRRLSGSTCLLTGVTRAGRWLPTTAPCLSLCSFFLTASRRKQSTSGIGGDVRDIEETHPDFQPRLVSADLAEDEIAMVKKDIDDTIKSEDVVTFIKGLPEAPMCAYSKRMIDVLEALGLEYTSFDVLAHPVVRSYVKEVSEWPTIPQLFIKAEFVGGLDIVTKMLESGDLKKMLRDKGITCRDL | not soluble
9 | MSGWNAYIDTMTAAAPSIKRCAIVGAADGSVWARTEADNVFKASEEELKTFVALFNDVTQVPAKGADIEGVHYVVPRTEESLIFGKKENTGFFAVKTKSAVLIAVYEGPNEVAAQVRKAVESMQTYLNNAGY | not soluble
10 | MGSDKIHHHHHHNTEQQLDSEVSEPTKTMRSQQHSDGAAAITHLTPLDLPLDSQGLTDEDSQQINSLLNQLHESAMSADWDTYFDLYHPDAAFIGTDATERWNMVHFRRYASPTQGWRYDLQARHLLQIEDVVVFDEQLYSPEYGISRGTGALVNTTKGWKIAQYHLSFPIPNAKAKRITTLIKQ | not soluble
11 | MQQEALSFLSSSLPSLHHNFPSLSRLRFNNFPALSFKPNTSSSSSSFFKSPDIPSLSSTTTTTTTTETLESSIHEKLIYLDSLGIDFLTLINRHPPLLSTALSAVESVVDYMTTPPINFTLQDFRRLVSMCPELLTSPLTSHTIPVITFLLREVGVDSIFDLRQALRRRPRLLACSVDHQLRPTLYFLQRIGILDPHKHTYLLSCSVDNKLVPRIDYFEKLGFSRRSATAMFKRFPQLFNYSIAENYEPKLKYLMVEMGRDVREVLEFPQYFSFSLENRIKPRHEACAAKGVRFPLPVMLKTNEAGFRDTLEVCCDSSPPLKTSRLVTVQKDS | not soluble
12 | MSLNSATHLAAHEGSARRRQALGEFVRTARARITPQMAGLPAGSRRRTPGLRREEVAQLSDISVTWYTWIEQGREVTVSPAVWARIANVLHLARAERAYLFELAECADPQQPRDEGGDAPVSLQACVDAIDAPAYALDRAWNLLASNAAMRELFDDWPLRDAQPNLLRYIFLDPAARELVVDWDQRARRVVAEFRADAGAHLDEADVVALLDELNRASPVFAHWWTRHAVVEREGGLREFQHPRSGRQNLQQITFRLATHPELKLVMLLPSEGHHHHHH | soluble
13 | MSGREFLQKLLDGERVEWKALGEIIQLEKGRQLNKDLLSSSGRYPAYNGGMSYSGFTDSYNYSENKTIISQGGASAGFVNFVTTKFYANAHCYVVLPDTEVVDNRYIYHFLKLNEERLTSCQHGAGIPALRASEITSLKIPIPCPDNPKKSLAIQAEIVRILDAFTELTAELTAELTARKKQYAYYRDRLLTFTTPPYGHPSKGGELFSLFGHPSEGGELFTPYGHSVEERELNSPSLKGWQAQPDGVVPVEWKTLGEVGHFIRGSGIQKSDFKASGVGCIHYGQIHTHYGTWTTETKSFIDPEFANRLKKAKPGDLVIATTSEDDDAVAKAVAWIGTEDVAVSTDAYIFRHTANPKYMSYFFQTDMFQEQKKPYITGTKVRRISGDNLAKILIPIPPLAEQERIVAILDQFDALTNSLTEGLPREIELRQKQYAYYRDLLFSFPKASFGGVPEGRDQFPSFGGVPEGRGGLNALEHHHHHH | not soluble
14 | MADYIYIDNSNLYIEGRRVSAVQQRLATNINEAMRDGILDHGYTISFGKLHEFLTGGDLTKIKRAALYGSRPPPNDSIWKSAERAGFELHLEDRNVANKEKKIDTGIATLLTKDAYKHGKPEEDLFVLVAGDKDYVPTLNELRADGYQVEVVFWSHAAKELKDAATRFISLDQHLEHLRF | soluble
15 | MTIIKLERRDVRLLLLYEFRLGHSAMEAERNICGAMGEGALSYNTAKSWFQKFKNGDFSLEEIERSGRPVELNEEDLVKLVEEEPRLSLREMEEKLECCHSTIPRHLGRLGFTSKLGTWVPHELSASQKLTRVNVCTQLLTFRRKFDWLNNLVTGDEKWVLYVNHSRKRQWLPIGEKGIPTPKPDLHPKKIMICV | soluble
16 | MEKLYDVIVVGAGTSGMMAAISAAEQGARVLLIEKNKKAGKKLLMTGGGRCNVTNNRPVDDLIAHIPGNGKFLYSTFAQWNNFDIMNFFESQGVHLKEEDHGRMFPVTNKSKTIIEALLNRLKELDVTLLFSTRVEKLIHKEHKIYGIRTEFEEFHAPAIILTTGGRTYPSTGSTGDGYKIVKRVGHTVTPLYATESPLISDEPYIQEKTLQGLSLQDITLRVLNKKGRVLTEHTMDLLFTHFGISGPAALRCSSFVNKELEKTGEPVTLSLDCFPTQTKQELIHILTEKSKATKKNLVNAWHGILPERLLVFFLERLEMDHLTGQQASQKQIQDFVQLCKEFKLSINKTFPIEKSFVTGGGVSLKEIYPKTLESKIIDGLYFAGELLDVNGYTGGFNITAAFATGHVAGMNAGQRA | soluble
17 | MGSDKIHHHHHHMTIPTSYLNHTDAEAARKARATYRDGLVAPTSGIAPGFTQANMIVLPRDWAFDFLLYAQRNPKPCPVLDVSDPGSPTTLLAPGADLRTDLPLYRIWRDGKLAEETADATSAWAERDDLVAFLIGCSFTFETPMVEAGIEIRHMTDKSNVPMYLTNRPCRPAGRLKGNMVVSMRPIPASRVADAATISGRFPAVHGAPVHVGAPEQIGISDLSKPDFGDAVRIEPGEVPVFWACGVTPQAAVMASGVPFAITHAPGHMFITDIPDTAYHA | not soluble
18 | MGSDKIHHHHHHMKIGIVTFHRALNYGAVLQACAMRRIFSDHGEVEMVDYWPDYHSSHYSLLDTRFLNKNQSLSSRVRLLKSAIKRIILLPVRLKRNKKFLSFIDSNIVKVSNAPIKLANKIPDYFDVVVYGSDQIWRVYDFDNYPRPDMVYMGAGVLDGTRKIAFAASMGDVNVDTLCDDSVIKALKNFEHINVREQALSESLLKHSGLSSCVVLDPTFLVSSDVWKRMAETIPRNRKDNKYALFYSLIPSEESIRIAKNIAEEKGVELVEINGFETIGGLFNKSVAQSAGPLDFLELIMNAEFIVSTSFHGVVFSIIFEKQFCACGMKGHSERVRSLLSKLSIEDRLIDTVEQLESLGEIDYKEVTKLLAREIEHSKELLEYSLFE | not soluble
19 | MGSDKIHHHHHHMVGIILASHGEFAKGILQSGAMIFGDQENVQAVTLMPSEGPDDVKAKMKDAIASFDNQDEVLFLVDLWGGTPFNQANSLFEEHKDKWAIVAGMNLPMVIEAYGARLSMESAHEIAASIISTAKEGVKVKPEELEPEDAGKASQGSAKQSNTGAPGSFEYVLARIDSRLLHGQVATAWTKAMQPTRIIVVSDAVAKDELRKKLIQQAAPPGVKAHVVPINHMIKLAKDDQHFGGQRAMLLFENPEDVLRVVEGGVPLKTINVGSMAHSTGKVQPNKVLAFNQEDIDTFNKLKQSGLTFDVRKVPNDSKGNMDEIIKKAQDELNKQK | not soluble
20 | MEVIREQEFVNQYHYDARNLEWEEENGTPKTNFEVTFQLANRDEAAKVTSIVAVLQFVIVRDEFVISGVISQMAHIQGRLINEPSEFSQDEVENLAAPLLEIVKRLTYEVTEIALDRPGVTLEFNS | soluble
21 | MAHHHHHHMALTTDYSKLGELIHQSPESPSLYNQAKYHTQKQNDSFYEIKRFMCLGSTIPDDAQYSVDLLIDRGDKKCRDVLAESFRVEGYKYATTNNDDNVRFAKLFFDHYANMFYCMHLHGDDRKCNSLFRHFYEAVGKQTR | not soluble
22 | MGSDKIHHHHHHMDEETRRAVATADEALPTSDALPDAIDTGRVVFGFDGYLDRVREVVADRIDPESHERLATLESFGDRIDRSVAADSSLSFEWLQQGSRTGGHTSHLARAFGGWSFDPVMVGMYGDPVHDAFETEFGEYELHSLGEPGVTDAVEFDDGKLMLTEIGDTMSLDWAELDTAFGHDRLAEKLDGASLLGTGYWSETPDLPTVFDGLRTLWDGIDDPPETVLVDPGDVRKLDADRLRAGREAIGRLDEVTDVVVTSNRAETGVLADAYAGDAERSFADDAEAVFEALEPTWFVGHGVEQSVVVTAAGTDSVAVPSVSDPELTTSSGDHFNAGLGLARIADLSPAAAVVVGNAVAGYFVRTADQPSLADVRAFVDEYLEKF | not soluble
